Reference: the nanobody polyreactivity screen of Harvey et al. (2022)

Assay: yeast display, Sf9 membrane polyspecificity reagent, FACS + sequencing; frameworks hold sequencing errors
How it was run: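 Using colony PCR, genes from sorted yeast display clones were amplified, then sequenced on MiSeq at 2 × 250 and filtered by CDR length. The clones had been stained with 10% biotinylated, detergent-solubilized Sf9 membrane reagent for 1 hour at 4 °C and sorted by FACS into low and high (top ~1%) gates on anti-HA and streptavidin fluorescence. Polyreactivity labels come from the gate of origin.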

Row | Sequence | polyreactivity (PSR sort gate)
1 | QVQLVESAGGLVQAGGSLRLSCAAYGRTLAKYAMGWYRQAPGKERELVAAITRDGSTNYADSVKGRFTISRDNAKNTVYLQMNSLKPEDTAVYYCATRSYWYRVYYWGQGTQVTVSS | high polyreactivity
2 | QVQLVESGGGLVQAGGSLRLSCAASGFTFFLNAMVWSRPAPGKERELVAAITYSGDSTYYADSVKGRFTISRDNAKNTVYLQMNSLKPEDTAVYYCAAASKFGLYEYEYWGQGTQVTVSS | low polyreactivity
3 | QVQLVESGGGLVQAGGSLRLSCAASGFTFRVYAMGWYRQAPGKERELVAAISKSGGSTYYADSVKGRFTISRDNAKNTVYLQMNSLKPEDTAVYYCAKVSQVRGFYYWGQGTQVTVSS | high polyreactivity
4 | QVQLVESGGGLVQAGGSLRLSCAASGSTFDRNAMGWYRQAPGKERELVAAINWRGGSTYYADSVKGRFTISRDNAKNTVYLQMNSLKPEDTAVYYCAKRQYSSDGRGFGYWGQVTQVTVSS | high polyreactivity
5 | QVQLVESGGGLVQAGGSLRLSCAASGSIFARNAMGWSRQAPGKERELVAGISRRGGSTYYADSVKGRFTISRDNAKNTVYLQMNSLKPEDTAVYYCNAVVYSPPYDYWGQGTQVTVSS | high polyreactivity
6 | QVQLVESGGGLVQAGGSLRLSSAASGRIFSINAMGWYSQAPGKERELVATISWRGGSTYYADSVKGRFTISRDNAKNTVYLQMNSLKPEDTAVYYCAAKYPYYSSYAYGYWGQGTQVTVSS | high polyreactivity
7 | QVQLVESGGGLVQAGGSLRLSCASSGSTFTGNAMGWYRQAPGKERELVAAISYRGVSTSYADSVKGRFTISRDNAKNTVYLQMNSLKPEDTAVYYCAKRRSLVRSIPFDSWGQGTQVTVSS | low polyreactivity
8 | QVQLVESGGGLVQAGGSLRLSCAASGRTFRWYAMGWYRQAPGKERELVAAIRRSGGGTYYADSVKGRFTISRDNAKNTVYLQMNSLKPEDTAVYYCNTDYPVYQRGVISDGFDYWGQGTQVTVSS | low polyreactivity
9 | QVQLEESGGGLVQAGGSLRLSCAASGSIFYSYAMGWYRQAPGNERELVAAITRGGSTYYADSVKGRFTISRDNAKNTVYLQMNSLKPEDTAVYYCAADSQYGWPEYEYDYWGQGTQVTVSS | low polyreactivity
10 | QVQLVESGGGLVQAGGSLRLSSAASGSIFVRNAMGWYRQAPGKERELVAAITSRVGSTYYADSVKGRFTISRDNAKNTVYLQMNSLKPEDTAVYYCAVVFAKRAWSRYDYWGQGTQVTVSS | high polyreactivity
11 | QVQLVESGGGLVQAGGSLRLSCAASGSIFVNNAMGWYRQAPGKERELVAAISSRSSRTFYADSVKWRFTISRDNAKNTVYLQMNCLKPEDTAVYSCAVKKRAPDGDYWGQGTQVTVSS | high polyreactivity
12 | QVQLVESGGGLVQAGGSLRLSCAASGFIFDWYAMGWYRQAPGKERELVAAINESGGDTYYADSVKGRFTISRDNAKNTVYLQMNSLKPEDTAVYYCAARTYHRYDYWGQGTQVTVSS | high polyreactivity
13 | QVQLVESGGGLVQAGGSLRLSCAASGGTFWVNMGWYRQAPGKEREFVAAITWSAGSTYYADSVKGRFTISRDNAKNTVYLQMNSLKPEDTAVYYCAGGGGHYQEYLMEDYWGQGTQVTVSS | high polyreactivity
14 | QVQLVESGGGLVQAGGSLRLSCAASGLTFKQYALGWYRQAPGKERELVAAITVSGGDTYYADSVKGRFTISRDNAKNSVYLQMNSLKPVDTAVYYCAADHFFWGYDYWGQGTQVTVSS | high polyreactivity
15 | QVQLVESGGGLVQAGGSLRLSCAASGSTYYGNAMGWYRQAPGKERQLVAAIRSRGGSTYYADSVKGRFTISRDNAKNTVYLQMNSLKPEDPAVYYCDAKQPSWKYAYYYWGQGTQVTVSS | high polyreactivity
16 | QVQLVESGGGLVQAGGSLRLSCAASGFTFTYYAMGWYRQAPGKERELVAAISSSGGRTYYADSVKGRFTISRDNAKNTVYLQMNSLKPEDTAVYYCAARSVSATPDFHYWGQGTQVTVSS | high polyreactivity
17 | QVQLVESGGGLVQAGGSLRLSCAASGRIFAPYAMGWYRQAPGKERELVAAISWRVGSTYYADSVKVRFTISRDYAKNTVYLQMNSLKPDDTAVYYCAARPSYRYDYLGQGTQVTVSS | high polyreactivity
18 | QVQLVESGGGLVQAGGSLRLSCAASGLTFVDNALGWYRQAPGKDRELVAAISYNGGTTYYADSVKGRFTISRDNAKNTVYLQIISLKPEDTAVFYCAADISVGRYGDMDYWGQGTQVTVSS | low polyreactivity
19 | QVQLVESGGGLLQARGSLRLTCAASGIIFIKYAMGWYRQPPGKDRELVASSTSGGSTHYADSVKGRFTISRDNAKNTVYLQMNSLIPEETSVYYCNADILRHDAYFKDRYQAGSYWGLGTQVTVSS | low polyreactivity
20 | QVQLVESGGGLVQAGGSLRLSCAASGSTFSPNAMGWYRQAPGKERELVAAITWSGGSNTYADSVKGRFTISRDNAKNTVYLQMNSLKPEDTAVYYCAADTKYDNDYWGQGTQVTVSS | low polyreactivity
21 | QVQLVESCGCLVQAVGSLRLSCAASRFIFRLYAMVWYRQAPGKERELVAAISSGTSTYYADSVKVRFTISRDNAKNTVYLQMNSLKPEETEVYYCAAVPRVNWSRYVYFWYDYWGEGTQVTVSS | high polyreactivity
22 | QVQLVESGGGLDQAGGSLRLICAASGRTYDTNAMGWYRQAPGKEREFVAAINTGGNTYYADSVKGRFTISRDNAKNTVYLQMNSLIPEDTAVYYSAAYYYYFYHKVIWYELDYWGQGTQVTLSS | low polyreactivity

Row | Sequence | polyreactivity (PSR sort gate)
23 | QVQLVESGGGLVQAGGSLRLSCAASGSTLVFYAMGWYRQAPGKERELVAAITRSGGSTYYADSVKGRFTISRDNEKNTVYLQMNSLKPEDTAFYYCAADERYIYERDSWGQGTQVTVSS | low polyreactivity
24 | QVQLVESGGGLVQAGGSLRLSCAPSGRIFGGYTMGGYRQAHGKVRELVASINSGGSTAYADSVKGRFTISRDNAKNTVYLQMNSLKPEDTAVYYCNAYLVYSYSPSHYYGFGYWGQGTQVTVSS | high polyreactivity
25 | QVQLVESGGGLVQAGGSLRLSCAASGSTFDIYAMGWYRQAPGKERELVAAISVSDVDTYYADSVKGRFTISRDNAKNTVYLQMNSLKPEDTAVYYCNAERFWPWDYDYWGQGTQVTVSS | high polyreactivity
26 | QVQLVESGGGLVQAGGSLRLSCAASGSTFRYNTMGWYRQAPGKERELVAAINISSSSTYYADSVKGRFTISRDNAKNTVYLQMNSLKPEDTAVYYCANRDYVPIATDENDDYWGQGTQVTVSS | low polyreactivity
27 | QVQLVESGGGLVQAGGSLRLSCAASGFTFPNYAMGWYRQAPGKERELVAAITSGGGRTNYADSVKGRFTISRDNAKNTVYLQMNSLKPEDTAVYYCAKTRVRGSEFGYWGQGTQVTVSS | low polyreactivity
28 | QVQLQESGGGLVQAGGSLLSCAASGTISYYREMGWYRQAPGKERELVAGIGVGTITYYADSVKGRFTISRDNAKNTVYLHMNSLKPEDTAVYYCAAHIDGNDSHAYWGQGTQVTVSS | low polyreactivity
29 | QVQLVESGGGLVQAGGSLRLSCAASGSTFVGYAMGWYRQAPGKERELVADIDSIGGSTYYADSVKRRFTISRDNAKNTVYLQMNSLKPEDTAVYDCAAYQHPGLRTSYEYWGQGTQVTVSS | low polyreactivity
30 | QVQLQDSGGGLEQAGGSLRMSCAANGNIFDADIVGRYRQAQGKKRELVASITDGGITNYADSVKGRFTISRDNAKYTVYLQMNSQNPEDTAVYYCAAIAYPDIPTYFDYDSDFFYWGQGTQVTVSS | high polyreactivity
31 | QVQLVESGGGLVQAGGSLRLSCAASGRTFYRNAMGWYRQAPGKERELVAAISRGDSTYYADSVKGRFTISRDNAKNTVYLQMNSLKPEDTAVYYCAKRARRIGDVNMGSWGQGTQVTVSS | low polyreactivity
32 | QVQLVESGGGLVQAGGSLGLSCAASGRIFSRNAMGWYRQATGKEREFVAAISRRGTSTYYADSVKGRFTISRDNAMNTVYLQMNSLNPESTAVYYCNVDQWASQRYSRYDYWGQGTQVTVSW | high polyreactivity
33 | QVQLVESGGGLVQAGGSLRLSCAASGSILSYYVMGWYRQAPGKERELVAAITSDGSKNYADSVKGRFTISRDNAKNTVYLQMNSLKPEDTAVYYCAAVIAWYYGVQDVYYLGLYDYWGQGTQVTVSS | low polyreactivity
34 | QVQLVESGGGLVQAGGSLRLSCAASGRTFDGNVMGWNRQAPGKERELVAAITASGGRTYYADSVKGRFTISRDNANNTVYIEMNSLNPEDTAVYYCAARIYRVYYVHFAPYYYWGQGTQVTVSS | high polyreactivity
35 | QVQLVESGGGLVQAGGSLRRSCAASGSTFTTYAMGWYRQAPGKERELGAAITSVGSTYYEDSVKGRCTISRDNAKNTVYLQLNSLKPEDTAVYYCNVVYRDQYNDWGQGTQVTVSW | low polyreactivity
36 | QVQLVESGGGLVQAGGSLRLSCAASGRIFRFYDMGWYRQAPVKESELVASISSTGGRTYYADSVKGRFTISRDNAKNTVYVQMNSLKPEDTAVYYCNATRGQYVGRYYYWGQGTQVTVSW | high polyreactivity
37 | QVHRVESGGGLVQAGGSLRVSCAATGINFSDYAMGWYRQEPGKERQLVAAITGGGSTYYADSVKGRFTISRDNAKNTVYLQMNSLKPEDTAVSYCNAVWARLWIRSTEVDYRGQGTQVTVSS | low polyreactivity
38 | QLQLVESGGGLVQAGGSLRLSCAASGSTFTDYAMGWYRQAPGKERELVAAISWSGGSTYYADSVKGRFTISRDNAKNTVYLQMNSLKPEDTAVYYCAFRYHGYDYWGQGTQVTVSS | high polyreactivity
39 | QVQLVESGGGLVQAGGSLRLSCAASGRIFSIYAMGWYRQAPGKEREFVAAITQSGGSTYYADSVKGRFTISRDNAKNTVYLQMNSLKPEDTAVYYCAADEWGVRSEYDYWGQGTQVTVSS | low polyreactivity
40 | QVQLVESGGGLVQAGGSRRLSCAASGSIFSGNTMGWYRQAPGKERELVAAISSGGSTKYADSVKGRFTISRDNAKNTVYFQMNRLNPEDSAVYFCGATSSYRLRDRHRIWYGYWGQGTEVTVSS | high polyreactivity
41 | QVQLVESGGGLVQAGGSLRLSCAASGRTFVLYAMGWYRQAPGKERELVAAITSGGSTNYADSVKGRFTISRDNAKNTVYLQMNSLKPEDTAVYDCAAVPVRYRYSYGYYYWGQGTQVTVSS | high polyreactivity
42 | QVQLVESGGGLVQAGGSLRLSCAASGSILALYTMGVYRQAPGKERELVASISSGGRTNYADSVKGRFTISRDNAKNTVYLQMNSLKPEDTAVYYCARSRLGRAYGRYDYWGQGTQVTVSS | low polyreactivity
43 | QVQLVESGGGLVQAGGSLRLSCAASGIIFYYYAMGWYRQATGKERELVAAITRSGGSTYYADSVKGRFTISRDNAKNTVYLQMNSLKPEDTAVYYCAAARLPYYVGRYYYWGQGTQVTVSS | high polyreactivity
